How the values were obtained:
[1] = system: HL-60 cells adhered to HUVEC cells; assay: Binding between inflammatory cells HL-60 and HUVEC induced by TNF-a; assay type: cell-based, human; conditions: 1 ng/ml TNF-a; 0.2 ug/ml Ang1 or 0.1 ug/ml Ang2 + 0.5 ug/ml 10D6
Procedure: Meanwhile, if the expression of inflammatory adhesion substances (ICAM-1, E-selectin, etc.) of vascular endothelial cells is increased, binding between the inflammatory cells and the vascular endothelial cells are accelerated and inflammatory response is thus induced. To confirm this, an experiment for measuring binding between inflammatory cells HL-60 (ATCC) and HUVEC was conducted.
HUVEC cells (4×10^5) were cultured in a 24-mutiwell plate and treated with 0.1 ug/ml of Ang2 alone or 0.1 ug/ml of Ang2 together with 0.5 ug/ml of antibody 10D6, and a group in which 0.2 ug/ml of Ang1, and 0.1 ug/ml of Ang2 (R&D systems) and 0.5 ug/ml of Regeneron Co. antibody (RG antibody) were co-treated was included as a control group. As above, the HUVEC cells were treated with Angiopoietin and antibody and after 30-min. pre-incubation, they were treated with 1 ng/ml of TNF-a (eBioscience) to induce inflammatory response and incubated for 2 hours and 30 min.
After the HUVEC cells were washed with complete media (Lonza), HL-60 cells dyed with Calcein-AM (BD bioscience) solution were added at the amount of 2.5×10^5 cells to each well and incubated for 1 hour. […] The obtained lysate was transported to a 96-well plate, and fluorescence strengths derived from the HL-60 cells were measured at 485/535 nm (Ex/Em) setting using an Envision 2104 multilabel Reader (Perkin Elmer).

[2] = target: T1, Ang2:Tie2 receptor (Homo sapiens, UniProt O15123); assay: ELISA for formation of 10D6-Ang2-Tie2 complex; assay type: binding; conditions: Tie2-Fc coated; 0.25 ug/ml Ang2, 2 ug/ml antibody
T1 construct: purchased R&D systems (Tie2-Fc)
Procedure: A 96-well MaxiSorp™ flat-bottom plate (Nunc) was coated with 4 ug/ml of Tie2-Fc (R&D systems) or BSA (Sigma). Then, the plate was washed five times with 0.05% (v/v) Tween-20-containing PBS (Phosphate Buffer Saline) and blocked with 1% (v/v) BSA (Bovine serum albumin; Sigma)-containing PBS at a room temperature for 2 hours. 0.25ug/ml of Ang2 and 2ug/ml of antibody 10D6 were added to each well of the plate, which was allowed to react at a room temperature for 2 hours and then washed five times with PBST. After that, an anti-mouse IgG antibody (Sigma) conjugated with HRP diluted in 1% (v/v) BSA-containing PBS at a ratio of 1:5,000 (v/v) was added in an amount of 100 ul to each well to react at a room temperature for 1 hour and then, the plate was washed five times with PBST. Lastly, 100 ul (microliter) of TMB substrate (Cell Signaling) was added to each well of the plate to induce color development for 3 min. and then, the reaction was ceased by the addition of 100 ul of Stop solution (Cell Signaling) and OD450 values were measured on a plate reader (Molecular Devices).

[3] = target: T2, Ang2-Tie2 binding (Homo sapiens, UniProt O15123); assay: Ang2-Tie2 binding competition ELISA; conditions: antibody 400 nM to 0.001 nM; 400 ng/ml FLAG-tagged hAng2; hTie2-Fc coated plate
T2 construct: purchased R&D Systems (hTie2-Fc)
T2 sequence (O15123 19-496): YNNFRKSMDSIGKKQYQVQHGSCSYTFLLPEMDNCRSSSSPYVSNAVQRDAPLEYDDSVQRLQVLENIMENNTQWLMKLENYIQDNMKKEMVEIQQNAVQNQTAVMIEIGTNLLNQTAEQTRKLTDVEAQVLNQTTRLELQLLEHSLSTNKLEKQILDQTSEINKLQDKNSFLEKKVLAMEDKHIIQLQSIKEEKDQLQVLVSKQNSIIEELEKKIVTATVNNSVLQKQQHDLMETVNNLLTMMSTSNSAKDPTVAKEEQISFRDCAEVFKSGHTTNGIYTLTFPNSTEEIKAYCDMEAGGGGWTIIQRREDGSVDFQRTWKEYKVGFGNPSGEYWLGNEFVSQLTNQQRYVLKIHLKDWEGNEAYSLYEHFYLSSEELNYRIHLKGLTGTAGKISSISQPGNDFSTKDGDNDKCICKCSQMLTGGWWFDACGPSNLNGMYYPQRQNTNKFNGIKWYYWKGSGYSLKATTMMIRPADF
Procedure: Ang2-Tie2 binding competition ELISA was conducted using the antibody binding to Ang2 prepared in Example 2-1 above.
More specifically, MaxiSorp™ flat-bottom plate (Nunc) of 96-well was coated with hTie2-Fc (R&D Systems) which is a protein bound with 4 ug (microgram)/ml of Fc of human IgG1. After that, the plate was washed five times with 0.05% (v/v) Tween-20-containing PBS (phosphate buffer saline) and then blocked with 1% (v/v) BSA (bovine serum albumin; Sigma)-containing PBS at a room temperature for 2 hour.
For Ang2:Tie2 competition ELISA, each anti-Ang2 antibody obtained in Example 2 was placed at various concentrations of 400 nM to 0.001 nM into each well coated with the hTie-2/Fc fusion protein along with 1% (v/v) BSA and 400 ng/ml of a FLAG-tagged hAng2 and then, the plate was allowed to react at a room temperature for 2 hours and washed five times with PBST. […] Lastly, 100 ul (microliter) of TMB substrate (Cell Signaling) was added to each well of the plate to induce color development for 3 min. and then, the reaction was ceased by the addition of 100 ul of Stop solution (Cell Signaling) and OD450 values were measured on a plate reader (Molecular Devices). […]

T1 sequence (Q02763 23-745 partner limits assumed, one chain of several): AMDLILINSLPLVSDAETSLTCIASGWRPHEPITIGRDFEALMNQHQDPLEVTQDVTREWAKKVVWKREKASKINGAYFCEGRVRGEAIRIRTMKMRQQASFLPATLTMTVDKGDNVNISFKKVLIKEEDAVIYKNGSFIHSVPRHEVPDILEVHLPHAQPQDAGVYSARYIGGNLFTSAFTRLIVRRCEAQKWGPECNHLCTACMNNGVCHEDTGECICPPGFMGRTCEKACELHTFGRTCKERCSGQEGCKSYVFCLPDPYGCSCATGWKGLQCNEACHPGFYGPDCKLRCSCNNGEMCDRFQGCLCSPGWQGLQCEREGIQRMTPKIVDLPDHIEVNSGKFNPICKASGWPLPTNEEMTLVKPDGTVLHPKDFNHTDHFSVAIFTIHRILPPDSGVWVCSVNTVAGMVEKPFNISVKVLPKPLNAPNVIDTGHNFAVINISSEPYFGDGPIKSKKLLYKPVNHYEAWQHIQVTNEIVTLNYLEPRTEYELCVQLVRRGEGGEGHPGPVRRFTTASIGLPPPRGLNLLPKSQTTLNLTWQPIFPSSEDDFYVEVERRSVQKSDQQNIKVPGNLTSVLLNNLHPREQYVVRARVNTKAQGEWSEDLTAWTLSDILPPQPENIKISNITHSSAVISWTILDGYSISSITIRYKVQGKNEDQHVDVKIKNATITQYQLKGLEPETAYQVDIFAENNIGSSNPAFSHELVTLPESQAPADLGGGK

B1: 10D6: mouse anti-Ang2 monoclonal antibody from hybridoma KCLRF-BP-00295; heavy chain variable region SEQ ID NO: 7, light chain variable region SEQ ID NO: 9 (antibody, V domains shown)
VH: DVQLQESGPGLVKPSQSLSLTCTVTGYSITSDYAWNWIRQFPGNKLEWMGYINYSGNTDYNPSLKSRSSITRDTSKNQFFLQLNSVTTGDTATYYCARGNFEGAMDYWGQGTSVTVSS
VL: SIVMTQTPKFLLVSAGDRVTITCKASQSVSNDVAWYQQKPGQSPKLLIYYASNRYPGVPDRFTGSGYGTDFTFTISTVQAEDLAVYFCQQDYSSPWTFGGGTKLEIK
modifications: Synthetic (Heavy chain variable region of an anti-Ang2 antibody); Synthetic (Light chain variable region of anti-Ang2 antibody)
binding between HUVEC cells and HL-60 cells induced by TNF-a [1]: remarkably suppressed | formation of complex with Ang2 bound to Tie2 [2]: formed a complex | inhibition of Ang2-Tie2 binding [3]: did not inhibit

Source: US9505841B2, “Use of an anti-Ang2 antibody” (Samsung Electronics Co., Ltd., priority 2013, dated 2016)
